Measurements as given in patent US20260191929A1.

Molecular target: mouse CD117 (stem cell factor receptor, c-Kit) on mouse bone marrow and lung cells (mouse) (UniProt P05532)
Test: cell-based or functional assay

UniProt P05532, sequence (P05532 25-979): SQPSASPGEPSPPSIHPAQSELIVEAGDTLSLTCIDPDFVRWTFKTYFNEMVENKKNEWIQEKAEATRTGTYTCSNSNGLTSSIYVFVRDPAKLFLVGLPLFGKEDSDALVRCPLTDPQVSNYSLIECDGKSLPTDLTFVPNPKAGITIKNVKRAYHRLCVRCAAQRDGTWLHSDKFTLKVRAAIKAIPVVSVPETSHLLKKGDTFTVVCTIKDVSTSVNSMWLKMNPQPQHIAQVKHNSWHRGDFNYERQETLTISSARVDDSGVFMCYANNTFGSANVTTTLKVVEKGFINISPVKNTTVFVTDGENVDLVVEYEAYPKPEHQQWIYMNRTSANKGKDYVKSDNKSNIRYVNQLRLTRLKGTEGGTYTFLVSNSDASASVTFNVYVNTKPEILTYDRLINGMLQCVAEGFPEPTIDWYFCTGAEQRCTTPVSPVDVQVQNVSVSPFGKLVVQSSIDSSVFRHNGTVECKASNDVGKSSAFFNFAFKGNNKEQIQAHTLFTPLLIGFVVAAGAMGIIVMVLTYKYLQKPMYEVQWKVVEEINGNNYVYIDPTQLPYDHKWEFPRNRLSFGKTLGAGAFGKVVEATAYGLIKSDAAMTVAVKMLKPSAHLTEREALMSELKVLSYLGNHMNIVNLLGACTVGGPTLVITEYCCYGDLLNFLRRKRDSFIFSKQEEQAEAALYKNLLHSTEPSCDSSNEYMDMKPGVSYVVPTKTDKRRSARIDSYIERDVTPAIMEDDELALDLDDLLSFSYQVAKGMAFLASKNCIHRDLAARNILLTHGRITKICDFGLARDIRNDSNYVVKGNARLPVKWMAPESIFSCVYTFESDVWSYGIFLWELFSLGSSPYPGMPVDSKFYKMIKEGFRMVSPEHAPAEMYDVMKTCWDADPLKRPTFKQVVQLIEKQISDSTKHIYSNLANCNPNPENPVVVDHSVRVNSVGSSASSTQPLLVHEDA

- gene editing (tdTomato) frequency in cKit+ lung cells after in vivo CD117/LNP-Cre: 90%
- luciferase activity normalized to the frequency of antigen positive cells, Lin- cells, relative to CD45/LNP: 700 fold
- luciferase activity normalized to the frequency of antigen positive cells, whole bone marrow (WBM), relative to CD45/LNP: 500 fold
Substance: purified rat anti-mouse CD117 (c-kit), clone 2B8 (BioLegend 93235), conjugated to LNP-mRNA (antibody)
